{"source": "patent US20180155399A1", "key": {"[1]": {"target": "T1, human Tissue Factor Pathway Inhibitor-1α (TFPI-1α) (human), P10646", "T1 sequence (P10646 29-304)": "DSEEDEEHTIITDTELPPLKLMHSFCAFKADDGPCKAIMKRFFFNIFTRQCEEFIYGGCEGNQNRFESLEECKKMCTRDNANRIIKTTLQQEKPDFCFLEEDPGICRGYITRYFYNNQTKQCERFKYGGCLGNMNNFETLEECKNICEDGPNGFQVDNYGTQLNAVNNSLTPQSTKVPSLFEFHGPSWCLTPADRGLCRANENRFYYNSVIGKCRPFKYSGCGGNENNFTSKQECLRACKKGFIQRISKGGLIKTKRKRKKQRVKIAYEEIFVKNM", "assay": "competition", "conditions": "modification not given"}, "[2]": {"target": "T1, human Tissue Factor Pathway …", "conditions": "modification not given"}, "[3]": {"target": "T2, murine TFPI 1-160 (mouse), O54819", "T2 chain": "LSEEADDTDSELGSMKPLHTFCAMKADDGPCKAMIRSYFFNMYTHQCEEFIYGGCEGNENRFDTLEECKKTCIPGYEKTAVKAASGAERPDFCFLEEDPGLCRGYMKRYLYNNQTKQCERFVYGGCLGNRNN", "assay": "cell-based or functional assay"}}}
{"binder": "FQSKKNVFVFGYFERLRAFL", "note": "[JBT0583]", "values": [{"measurement": "IC50", "setting": "[1]", "result": "> 5", "unit": "µM"}]}
{"binder": "FQSDKNVFVFGYFERLRAKL", "note": "[JBT0588]", "values": [{"measurement": "IC50", "setting": "[1]", "result": "> 5", "unit": "µM"}]}
{"binder": "FQSKKLVFVFGYFERLRAKL", "note": "[JBT0606]", "values": [{"measurement": "IC50", "setting": "[1]", "result": "> 5", "unit": "µM"}]}
{"binder": "LKARLREFYGFVFVNKKSQF", "note": "[JBT0783]", "values": [{"measurement": "IC50", "setting": "[1]", "result": "> 1.67", "unit": "µM"}]}
{"binder": "FQSFKNVFVFGYFERLRAKL", "note": "[JBT0572]", "values": [{"measurement": "IC50", "setting": "[1]", "result": "> 5", "unit": "µM"}]}
{"binder": "FQSKGNVFVTGYFARLRAKL", "note": "[JBT0720]", "values": [{"measurement": "EC50", "setting": "[2]", "result": 0.22, "unit": "µM"}, {"measurement": "IC50", "setting": "[1]", "result": 0.027, "unit": "µM"}]}
{"binder": "FQSKKFVFVFGYFERLRAKL", "note": "[JBT0574]", "values": [{"measurement": "IC50", "setting": "[1]", "result": "> 5", "unit": "µM"}]}
{"binder": "FQLKKNVFVFGYFERLRAKL", "note": "[JBT0603]", "values": [{"measurement": "IC50", "setting": "[1]", "result": "> 5", "unit": "µM"}]}
{"binder": "FQSKFNVFVFGYFERLRAKL", "note": "[JBT0573]", "values": [{"measurement": "IC50", "setting": "[1]", "result": 1.37, "unit": "µM"}]}
{"binder": "FFSKKNVFVFGYFERLRAKL", "note": "[JBT0570]", "values": [{"measurement": "IC50", "setting": "[1]", "result": "> 5", "unit": "µM"}]}
{"binder": "FQSKKNVDVFGYFERLRAKL", "note": "[JBT0591]", "values": [{"measurement": "IC50", "setting": "[1]", "result": "> 5", "unit": "µM"}]}
{"binder": "FQSKKNDFVFGYFERLRAKL", "note": "[JBT0590]", "values": [{"measurement": "IC50", "setting": "[1]", "result": "> 5", "unit": "µM"}]}
{"binder": "FQSVGNVFVDGYFERLSAKL", "note": "[JBT1278]", "values": [{"measurement": "IC50", "setting": "[1]", "result": 0.073, "unit": "µM"}]}
{"binder": "FESKGNVFVFGYFERLRAKL", "note": "[JBT0516]", "values": [{"measurement": "IC50", "setting": "[1]", "result": 1.19, "unit": "µM"}]}
{"binder": "FDSKKNVFVFGYFERLRAKL", "note": "[JBT0586]", "values": [{"measurement": "IC50", "setting": "[1]", "result": "> 1.67", "unit": "µM"}]}
{"binder": "FQSKLNVFVFGYFERLRAKL", "note": "[JBT0605]", "values": [{"measurement": "IC50", "setting": "[1]", "result": "> 1.67", "unit": "µM"}]}
{"binder": "FQSLKNVFVFGYFERLRAKL", "note": "[JBT0604]", "values": [{"measurement": "IC50", "setting": "[1]", "result": "> 1.67", "unit": "µM"}]}
{"binder": "FQSKKNVFVFGDFERLRAKL", "note": "[JBT0594]", "values": [{"measurement": "IC50", "setting": "[1]", "result": "> 5", "unit": "µM"}]}
{"binder": "FLSKKNVFVFGYFERLRAKL", "note": "[JBT0602]", "values": [{"measurement": "IC50", "setting": "[1]", "result": "> 5", "unit": "µM"}]}
{"binder": "FQFKKNVFVFGYFERLRAKL", "note": "[JBT0571]", "values": [{"measurement": "IC50", "setting": "[1]", "result": "> 5", "unit": "µM"}]}
{"binder": "FQSKKNVFVFGYFERFRAKL", "note": "[JBT0580]", "values": [{"measurement": "IC50", "setting": "[1]", "result": "> 5", "unit": "µM"}]}
{"binder": "FQSKGDVFVFGYFERLRAKL", "note": "[JBT0520]", "values": [{"measurement": "IC50", "setting": "[1]", "result": 0.188, "unit": "µM"}]}
{"binder": "FQSKKNVFVFGYFERLRFKL", "note": "[JBT0582]", "values": [{"measurement": "IC50", "setting": "[1]", "result": "> 5", "unit": "µM"}]}
{"binder": "FQSKKNVFVFGYFERDRAKL", "note": "[JBT0597]", "values": [{"measurement": "IC50", "setting": "[1]", "result": "> 5", "unit": "µM"}]}
{"binder": "AQSKGNVFVFGYFERLRAKL", "note": "[JBT0497]", "values": [{"measurement": "IC50", "setting": "[1]", "result": 0.1, "unit": "µM"}]}
{"binder": "FQSKGNVFVFAYFERLRAKL", "note": "[JBT0525]", "values": [{"measurement": "IC50", "setting": "[1]", "result": "> 5", "unit": "µM"}]}
{"binder": "FQSKKNVFVFGFFERLRAKL", "note": "[JBT0577]", "values": [{"measurement": "IC50", "setting": "[1]", "result": "> 5", "unit": "µM"}]}
{"binder": "FQSKNNVFVHGYFERLRAKL", "note": "[JBT0487]", "values": [{"measurement": "IC50", "setting": "[1]", "result": 0.04, "unit": "µM"}]}
{"binder": "FQSKKNVFVFGYFERLFAKL", "note": "[JBT0581]", "values": [{"measurement": "IC50", "setting": "[1]", "result": "> 5", "unit": "µM"}]}
{"binder": "FQSKKNVFDFGYFERLRAKL", "note": "[JBT0592]", "values": [{"measurement": "IC50", "setting": "[1]", "result": "> 5", "unit": "µM"}]}
{"binder": "FQSKGNVFVAGYFARLRAKL", "note": "[JBT0806]", "values": [{"measurement": "IC50", "setting": "[1]", "result": 0.042, "unit": "µM"}]}
{"binder": "FQSKKNVFVFFYFERLRAKL", "note": "[JBT0576]", "values": [{"measurement": "IC50", "setting": "[1]", "result": "> 1.67", "unit": "µM"}]}
{"binder": "FQSKGNVFVFGYFDRLRAKL", "note": "[JBT0528]", "values": [{"measurement": "IC50", "setting": "[1]", "result": 0.107, "unit": "µM"}]}
{"binder": "FQSKKNVFVFGYFEFLRAKL", "note": "[JBT0579]", "values": [{"measurement": "IC50", "setting": "[1]", "result": "> 5", "unit": "µM"}]}
{"binder": "FQSKKNVFVFGYFERLDAKL", "note": "[JBT0598]", "values": [{"measurement": "IC50", "setting": "[1]", "result": "> 5", "unit": "µM"}]}
{"binder": "SYYKWHCAMRDMKGTMTCVWVKF (modifications not checked)", "note": "[JBT1837]", "values": [{"measurement": "FXa inhibition assay", "setting": "[3]", "result": "> 10", "unit": "µM"}]}
